Kd data for two molecules are collected here from paper PMC12576823.

For the test, the target named is biotinylated cLDLR-TEV-Fc antigen (cleaved form of the low-density lipoprotein receptor) (UniProt P01130). Briefly: BLI; Octet RED384, room temperature; 20 nM biotinylated antigen-Fc immobilised on SA biosensor; monomeric Fab as analyte in PBS, 0.05% Tween-20, 0.2% BSA; 2:1 heterogeneous ligand model, global fit. A general note: BLI is a label-free optical method that tracks binding on a fibre tip over time.
Chain of UniProt P01130 (P01130 22-788): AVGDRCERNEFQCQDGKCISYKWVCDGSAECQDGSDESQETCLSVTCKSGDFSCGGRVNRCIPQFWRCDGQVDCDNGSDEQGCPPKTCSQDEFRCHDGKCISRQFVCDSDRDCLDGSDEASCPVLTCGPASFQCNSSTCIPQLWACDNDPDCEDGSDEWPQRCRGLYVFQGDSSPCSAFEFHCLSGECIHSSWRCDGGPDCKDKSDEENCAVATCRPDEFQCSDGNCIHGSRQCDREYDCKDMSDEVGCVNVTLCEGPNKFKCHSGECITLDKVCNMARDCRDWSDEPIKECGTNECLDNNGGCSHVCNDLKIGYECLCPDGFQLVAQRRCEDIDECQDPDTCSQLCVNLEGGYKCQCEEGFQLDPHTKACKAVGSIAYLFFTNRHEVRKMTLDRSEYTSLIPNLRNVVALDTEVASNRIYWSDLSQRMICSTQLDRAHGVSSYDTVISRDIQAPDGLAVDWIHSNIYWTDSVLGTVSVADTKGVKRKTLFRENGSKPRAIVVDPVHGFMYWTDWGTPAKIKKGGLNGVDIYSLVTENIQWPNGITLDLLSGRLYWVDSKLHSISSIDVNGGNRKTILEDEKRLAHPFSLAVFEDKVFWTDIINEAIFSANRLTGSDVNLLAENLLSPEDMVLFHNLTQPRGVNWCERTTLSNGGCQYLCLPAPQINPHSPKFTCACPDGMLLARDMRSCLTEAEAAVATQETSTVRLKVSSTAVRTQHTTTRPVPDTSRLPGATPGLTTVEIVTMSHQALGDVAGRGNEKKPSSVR

B1: 142F1 Fab (anti-LDLR) (Fab, V domains shown)
VH: EVQLVESGGGLVQPGGSLRLSCAASGFNVYSSSIHWVRQAPGKGLEWVASISSYYGSTYYADSVKGRFTISADTSKNTAYLQMNSLRAEDTAVYYCARWYGYGYYHPYYFGRSYGFDYWGQGTLVTVSS
VL: DIQMTQSPSSLSASVGDRVTITCRASQSVSSAVAWYQQKPGKAPKLLIYSASSLYSGVPSRFSGSRSGTDFTLTISSLQPEDFATYYCQQEWQSLFTFGQGTKVEIK
The Kd is the free concentration of one partner at which half of the binding sites on the other are occupied at equilibrium, for simple one-to-one binding. On to B1, for which the Kd stood at 5.8 nM.

B2: 142F6 Fab (anti-LDLR) (Fab, V domains shown)
VH: EVQLVESGGGLVQPGGSLRLSCAASGFNFSSSSIHWVRQAPGKGLEWVASIYSSSGYTYYADSVKGRFTISADTSKNTAYLQMNSLRAEDTAVYYCARKWYYGAMDYWGQGTLVTVSS
VL: DIQMTQSPSSLSASVGDRVTITCRASQSVSSAVAWYQQKPGKAPKLLIYSASSLYSGVPSRFSGSRSGTDFTLTISSLQPEDFATYYCQQSSTIWTPLTFGQGTKVEIK
For B2, the equilibrium dissociation constant (Kd) was 16 nM.
